From the DeepSol protein solubility set

Assay: soluble on expression in E. coli; label from the status in PepcDB or PDB records
For “MTVFSGVNKIEFEGTFEGIGKDVVMSQMIRALQKHFPSIRDKNYEFSLFLHIFQRYVLENTSITHDLVCDKIRLPIIDEVVELDDIKNYGLLEGKLLSKLAILKLTGKANPIIGKESPLFEVKNGMSSLDVIVRQTQNLNVRYNSDVPLIFMTSLETESQVSNFLEEHYSSSKVRWKTVVQSSFPQIDKDRLLPIDLQINSHENDFWYPCGTGNLTDTLYFSGELDKLIAQGKEILFVSNVDNLGATGDLNILNFIINEKIEYLVEVVERTANVSNTGVLATYKGKLRSVYYNCLSNESASTCRIVNTNNIWIDLKKLKVLIESNSLNLPIHSSESKITHKNEEIECLQFKTQLVDCIAFFPNSRVLKVSRDRFLPLRTCKDLFLLKSTLYDLDSNGTFNLYPLKFGLLPSIDLGDEFATYETFKIGVPDIPNILELEHLTVMGNVFFGRNITLKGTVIIICDENDVITVPDGSILENVTIWHKSQLEDMNGY”, the “soluble on expression in E. coli” value was “not soluble”. With “MTVIQNIPNSLCKGLNTFSKNYLQNCKRCLTFFYELCGIICKKIEIMKGYERATKEEINDRLRIEENCHAQVERIIYIRHLCNLNLEEAADVTNLSISTLSRYENEVTKCSVQSLITIYYHYQKYLYEQHIPFDKNLFLIDMNSFHN” the “soluble on expression in E. coli” value was “not soluble”. In the case of “MTVIQWFPGHMAKAKREVQEKLKLIDVAFELLDARVPMSSRNPMIDEILGQKPRLILLNKADMADEAVTEQWIRYFHDQGRLALPIDAQSGTGVRQIAAAAKEMVKDKFEKMRAKGIKNPRPVRALIVGIPNVGKSTLINRLAGRHIAKTGDKPGVTKAQQWIKVGKEMELLDTPGILWPKFEDEDVGYKLAVTGAIKDEILNLQDVAVYALRFLSTHYPNRLAERYGLDDIPDDIVALFDAIGRQRGCLTSGGAVDYDKVADIVLYDIRTEKLGRLSFETPASRT”, the “soluble on expression in E. coli” value is reported as “not soluble”. In the case of “MTVQIPKLLFLHGFLQNGKVFSEKSSGIRKLLKKANVQCDYIDAPVLLEKKDLPFEMDDEKWQATLDADVNRAWFYHSEISHELDISEGLKSVVDHIKANGPYDGIVGFSQGAALSSIITNKISELVPDHPQFKVSVVISGYSFTEPDPEHPGELRITEKFRDSFAVKPDMKTKMIFIYGASDQAVPSVRSKYLYDIYLKAQNGNKEKVLAYEHPGGHMVPNKKDIIRPIVEQITSSLQEASE”, the “soluble on expression in E. coli” value is reported as “soluble”. With “MTVSPIDPVKLEKLAEVAIKVGLQLQKDQDLVITAPLAALPLVRLLTKHAYIAGGGLVTTFYSDEETTLSRYRHASDANFDRASGWLYEGMAKAYANGAARLAIAGDNPMLLAEEDPAKVARANKANSTAYKPALEKISNFDINWNIISYPNPSWAKQVFPGLTEDEAVRKLADAIFAASRVDVADPVAAWAQHNANLAKRSAWLNGERFSALHFTGPGTDVKIGLADGHEWHGGASMAKNGVTCNPNIPTEEVFTTPHALRVDGYVSSTKPLSHQGTLIDDIQVKFEAGRIVEAKASKGEAVLNKVLDTDEGARRLGEVALVPHSSPISASGILFYNTLFDENASCHIALGQCYSKCFLDGASLSQDQIKAQGGNSSLIHIDWMIGSNKVDIDGVKPDGSTVPVMRKGEWA” the “soluble on expression in E. coli” value was “not soluble”. In the case of “MTVSSSAWMPRLISQQILSEYVKSLEVEADKVVIPGQNTPVFSWDRDGNGNLSIDTPLLKVRGESLATQADLTTISLTPGPKGELWQTSVERLDIKVDKHISLTFKNGVRID”, the “soluble on expression in E. coli” value is reported as “not soluble”. With “MTVSTPEQHEQRASHDASEGKHNVCQGRLAALADAAVSEKLGALPGWQLLDMRLSRAFQCTNFDQSIDFMNRVASIANDINHHPDIAVLDKRSVRVTAWTRKLGYLTDIDFDLAASVEAMYATEFADRPAR” the “soluble on expression in E. coli” value was “soluble”. With “MTVVNEYRPVEVFFGEGAVKKAGEVGRRFGFKALIVTGRKSTKESGALDKLINSLKQNQIEYVVFDEITPNPTDKQVNKGAEIAVNEKVDFIVGIGGGSVLDAAKAISIVSSNEGYAWDYVRYPEGSRLIPFLNRPVITIPTTAGTGSEVNRYSVLTNPMTKEKMVISHSLNYPKVALVDPELTYSMPPRLTALTGFDALMHALESLTNKRENFIAEEYSVKAIELIRKWLPVAFEEPENKEARRYMSYAAMLAGIAIDHLGVALIHAMEHPVSGHYPEVAHAEGLSALAPYITAFNYRGNPEKYALFARLMGEEEKPHKAVDALVKFIERFSLPKTLKELGVEKEKLPRLAEDVYMCARHSFAVNPVEVGMEEVEELYERAYEGRL” the “soluble on expression in E. coli” value was “soluble”. In the case of “MTYETISVRMNRSDRNIRWGFSVRQQADGLIIDRVEAESLSDKAGVKHNDKVDQINGRSTRGLDAASANRLIDDSFNEVRLSLQRFVTSHTTLPWTLNEKDNKMVVEEMKPGFGTGFGSGFGSSNFVNSSFNQNQNNFGSHFGTGSGVNQRNITNTNTSSSNHQSSTFHSSSHQSSGNYGSGGFSPSSHHNIPIRHSPAPPFTTSNSSYNNIKKSTDNTILPGSANYNPNNSSNYNSVPTGFGASSGGYGGSGGFKGHSNGSAIPAQAPPTSYSYNNGATSQPYGAGSGGTPLNQMTFINTSPAPGANGAYGAQCGLSPSKVFYHSPSGRSRNELSPGAAVHHLQYNSPMNLYSSEATAEQLYQQTGAVPEGPVPHDKSPAYLTSETRKLIEEEARGRFQRGKSPSSQSSCFKRISHAVGADH”, the “soluble on expression in E. coli” value is reported as “not soluble”. In the case of “MTYLETAAQFYSEVAQTPQVGLCCVQSTPLQLPGLKIPLPMQEMNYGCGTTVHPTELGKQPTVLYVGVGGGLEALQFAYFSRRPGAVIAVEPVAAMREAAARNLEMALTDNPWFDSSFVEIREGDAFNLPVADGSVDIVAQNCLFNIFEPEDLTRALKEAYRVLKPGGRLQMSDPIATSPVPAHLQQDERLRAMCLSGALTYEEYTQRIIDAGFGQIEIRARRPYRLLDSQTYNLETHLLLESLDSVSFKVPMPEDGACIFTGRTAIYAGCDAFFDDKAGHILQRGIPATVCDKTAAKLATVKPKEVIITDSTWHYNGGGCCLEHHHHHH”, the “soluble on expression in E. coli” value is reported as “soluble”. In the case of “MTYRELVERQLAVRHADLELGLSRAREQEPFVIHVSDLLDKAGIEYAVRMDKDFQTTFHLEYPITNYDTFKRAVWQTLGAYYCVCNDGDGLEIASNRPDGYAVRIVFGDVPV”, the “soluble on expression in E. coli” value is reported as “not soluble”. For “MTYRIVLKSDPEKRFKNIRACKDEPMQMVVRNINNGADYVHPEQDVEVFSVKTANNNDLVCVKCTPDSYSSNPAVAEQVVLFCQPNSSDLGGFLQPNSMNFVTYANVFETDLYAFDYSGYGFSSGTQGEKNVYADVRAVYEKILEMRPDKKIVVMGYSIGTTAAVDLAATNPDRLAGVVLIAPFTSGLRLFSSKPDKPDTCWADSFKSFDKINNIDTRVLICHGDVDEVIPLSHGLALYEKLKNPVPPLIVHGANHHTILSGKYIHVFTRIANFLRNETLVSCRSAEVDSSQQQQQLSSKRTENE”, the “soluble on expression in E. coli” value was “not soluble”. In the case of “MVAEVSPKLAASPMKKPFGFRGKMGKWCCCCFPCCRGSGKNNMGAWRDHDDSAFTEPRYHVRREDLGKLHRAAWWGEVPRADLIVMLRGPGINKRDKKKRTALHLACANGNSEVVSLLLDRQCQLHVFDSKKRTALIKAVQCQEDECALMLLQHGTDPNLPDMYGNTALHYAVYNEDKLMAKTLLLYGADIESKNKGGLTPLLLAVHGQKQRMVKFLIKKKANLNALDRFGRTALILAVRCGSASIVSLLLQQNIDVFSQDVFGQTAEDYAVSSHHSIICQLLSDYKENQMPNNSSGNSNPEQDLKLTSEEEPQRLKGSENSQHEKVTQEPDINKDCDREVEEEMQKHGSNNVGLSENLTDGAAAGNGDGGLVPQRKSRKHENQQFPNTEIEEYHRPEKKSNEKNKVKSQIHSVDNLDDITWPSEIASEDYDLLFSNYETFTLLIEQLKMDFNDSASLSKIQDAVISEEHLLELKNSHYEQLTVEVEQMENMVHVLQK”, the “soluble on expression in E. coli” value is reported as “not soluble”. In the case of “MVAPETERIRTQIRVYLLVEDLQRQFAAYLGTPTRARGYPPYEGEHALIVEVSPALAIERVIDLALRAVPGVQPGILYVERQFGVLEIHSASLDEVRRAGEAILAGTGNRAEDQLRPRVLFHDIITDITDQHAVILNRNRQASMILPGQSLLVYEMTPALFAAVAANEAERVAPGLTVVDVQMIGAAGRLYIGGSTDEVTVARDHITTVLSAIEGQEH”, the “soluble on expression in E. coli” value is reported as “not soluble”. With “MVAQKAYVSTPTLIDYLSRSAIKLLDIHSILLKVREEAMGGEPNLLRQIDSTKKQLDEISHALILEYRKRQENERFLKQILLSISDQLFSLNNGFKETGRLFFQEIRMLQSQMQCFYEGKERQYLLSEQESSYSPSKIDEVIKQLQKAREKLIVESPHLFEKEC” the “soluble on expression in E. coli” value was “not soluble”. In the case of “MVARSEEIVIVEEDTTAKCLMLLSRVGECGGGCGGDERVFRCKTCLKEFSSFQALGGHRASHKKLINSDNPSLLGSLSNKKTKTSHPCPICGVKFPMGQALGGHMRRHRNEKVSGSLVTRSFLPETTTVTALKKFSSGKRVACLDLDLDSMESLVNWKLELGRTISWS”, the “soluble on expression in E. coli” value is reported as “not soluble”.
